Data set [1] in a line: CD31 staining, left ventricle, 28 days post-MI. The note with it: glycan lost; control: Luc modRNA.
Data set [2] can be described thus: echography, %EF and %FS, 28 days post-MI. Particulars: glycan lost; control: Luc modRNA (hFSTL1 modRNA not significant).
The nature of data set [3]: proliferation markers in non-CMs 7 days post-MI. Particulars: glycan lost; control: hFSTL1 modRNA.
The nature of data set [4]: CD45 staining 7 days post-MI. Particulars: glycan lost; control: hFSTL1 modRNA.
Data set [5] can be described thus: CM size in heart sections 7 days post-MI. Particulars: glycan lost; control: control constructs.
The nature of data set [6]: Masson trichrome staining, 28 days post-MI. Particulars: glycan lost; control: Luc modRNA (hFSTL1 modRNA not significant).
The nature of data set [7]: weighing, 28 days post-MI. The note with it: glycan lost; control: Luc modRNA.

This note sets out measurements from publication PMC6171324.

B1: human FSTL 1 (hFSTL1): N180Q (Mut-1) (protein)
parent chain: MWKRWLALALALVAVAWVRAEEELRSKSKICANVFCGAGRECAVTEKGEPTCLCIEQCKPHKRPVCGSNGKTYLNHCELHRDACLTGSKIQVDYDGHCKEKKSVSPSASPVVCYQSNRDELRRRIIQWLEAEIIPDGWFSKGSNYSEILDKYFKNFDNGDSRLDSSEFLKFVEQNETAINITTYPDQENNKLLRGLCVDALIELSDENADWKLSFQEFLKCLNPSFNPPEKKCALEDETYADGAETEVDCNRCVCACGNWVCTAMTCDGKNQKGAQTQTEEEMTRYVQELQKHQETAEKTKRVSTKEI
As for B1, the “other: capillary density post-MI” value in data set [1] is given as “increases”. Besides, the “other: cardiac function post-MI” value in data set [2] is recorded as “increases”. Moreover, the “other: non-CM proliferation in heart” value in data set [3] is “no change”. Besides, the “other: leukocyte infiltration in heart” value in data set [4] is listed as “no change”. Further, the “other: CM size / hypertrophy” value in data set [5] was “no change”. For the same protein, the “other: scar size post-MI” value in data set [6] is recorded as “decreases”. The “other: heart weight-to-body weight ratio” value in data set [7] is reported as “increases”.

B2: human FSTL 1 (hFSTL1): N144Q (Mut-3) (protein)
parent chain: B1 parent chain
In the case of B2, the “other: non-CM proliferation in heart” value in data set [3] was “no change”. The “other: leukocyte infiltration in heart” value in data set [4] is “no change”.

B3: human FSTL 1 (hFSTL1): N175Q (Mut-2) (protein)
parent chain: B1 parent chain
As for B3, the “other: non-CM proliferation in heart” value in data set [3] is “no change”. For the same protein, the “other: leukocyte infiltration in heart” value in data set [4] is “no change”.

B4: human FSTL 1 (hFSTL1): Mut-(1–3) (protein)
parent chain: B1 parent chain
B4: the “other: cardiac function post-MI” value in data set [2] was “no change”. Further, in data set [3], the “other: non-CM proliferation in heart” value is reported as “no change”. Moreover, the “other: leukocyte infiltration in heart” value in data set [4] is reported as “no change”. In data set [5], the “other: CM size / hypertrophy” value is “no change”. For the same protein, in data set [6], the “other: scar size post-MI” value was “no change”.
